This data set can be described thus: yeast display, Sf9 membrane polyspecificity reagent, FACS + sequencing; frameworks hold sequencing errors. A digest of the protocol: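 A nanobody's polyreactivity label depends on the gate it was sorted from. Yeast display cells were stained with 10% biotinylated, detergent-solubilized Sf9 membrane reagent for 1 hour at 4 °C, enriched on streptavidin microbeads and sorted by FACS. The low and high (top ~1%) gates were set on anti-HA fluorescence for expression and streptavidin fluorescence for reagent binding.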
Regarding “QVQLVESGGGLVQAGGSLRLSCAASVRIFGYARGWYRQAPGKERELVAAITSSGGRTYYADSVKGLFTISRDNAKNTVYLQMNSLKPEDTAVYYCAKDASVSYSTNFRYYYWGQGTQVTVSS”, the “polyreactivity (PSR sort gate)” value is “high polyreactivity”.

On to “QVQLVESGGGLVQAGGSLRLSCAASVRIFLWYAMGWYRQAPGKERELVAAITKSAGTTYYADSVKGRFTISRDNAKNTVYLQMNSLKPEDTAVYYCGAYYWLYAHWRFGNYWGQGTQVTVSS”, for which the “polyreactivity (PSR sort gate)” value is given as “low polyreactivity”.

Regarding “QVQLVESGGGLVQAGGSLRLSCAASVRTFKYYAMGWYRQAPGKERELVASISRGGGSTYYADSVKGRFTISRDNAKNTVYLQMNSLKPDDTAVYYCAAYLRTRYIYCGQGTQVTVSS”, the “polyreactivity (PSR sort gate)” value was “high polyreactivity”.

With “QVQLVESGGGLVQAGGSLRLSCAASVRTFLYNAMGWYRQAPGKERELVASITTSGGSTYYADSVKGRFTISRDNAKNTVYLQMNSLKPEDTAVYYCAAGLPKWYDYGRLVKYNYWGQGTQVTVSS”, the “polyreactivity (PSR sort gate)” value is on record as “low polyreactivity”.

Consider “QVQLVESGGGLVQAGGSLRLSCAASVRTFYFYTMGWYRQSPGKERELVATIRWSAGSTYYADSVKGRFTISRDNAKNTVYLQMNSLKPEDTAVYYCNADPFVYSSWQYGYWGQGTQVTVSS”, for which the “polyreactivity (PSR sort gate)” value is recorded as “high polyreactivity”.

Turning to “QVQLVESGGGLVQAGGSLRLSCAASVRTQPRYAMGRYRQAPGKERDLVAAISRSGGSTHYADSVKGRFTISRDNAKNTVYFQMNSLKPEDTAVYYCATQRYPYRFYAFQYYYWGQGTQVTVSS”, the “polyreactivity (PSR sort gate)” value was “high polyreactivity”.

Consider “QVQLVESGGGLVQAGGSLRLSCAASVSIFDLYAMRWYIQAPGKERELVAAISWSDSRTYYADSVKGRFTISRDNATNTVYLQKNSLKPEDTAVYYCAADYRYPDNYGGYDYWGQGTQLTVSS”, for which the “polyreactivity (PSR sort gate)” value was “low polyreactivity”.

Consider “QVQLVESGGGLVQAGGSLRLSCAASVSTFSVYAMGWYRQAPGKERELVADISENGGSTYYADSVKGLFTISRDNAKNTVYLQMNSLKPEHTAVYYCAALYHSTSHTYSYWGQGTQVTVSS”, for which the “polyreactivity (PSR sort gate)” value is reported as “low polyreactivity”.

Turning to “QVQLVESGGGLVQAGGSLRLSCAATGFTFIPYAMGWYRQAPGKERELVAGITIGGRTNNADSVKGRFTISRDNAKNTVYLQMNSLKPEDTAVYYCNAGVYLYVTSKYWYYYWGQGTQVTVSS”, the “polyreactivity (PSR sort gate)” value is recorded as “high polyreactivity”.

Consider “QVQLVESGGGLVQAGGSLRLSCAATGFTIAWYTMGWYRQAPGKERELVAAISLNGGSKYYADSVKGRFTISRDNAKNTVYLQMNSLKPDDTAVYYCAKGYRWPYYPYDYWGQGTQVTVSS”, for which the “polyreactivity (PSR sort gate)” value is given as “low polyreactivity”.

On to “QVQLVESGGGLVQAGGSLRLSCAATGFTYYRNARGSYRQAPGKERELVAAISGSGGSTYYADSVKGRFTISRDNATNTVYLQMNSLKPEDTAVYYCAAAAGSYNSGNGYWGLGTQVTVSS”, for which the “polyreactivity (PSR sort gate)” value is given as “high polyreactivity”.

For the sequence “QVQLVESGGGLVQAGGSLRLSCAATGGTFTFYAMGWYRQAPGKERELVATINWSGGSTYYADSVKGRFTISRDNAKITVYLQMNSLKPEDTAVYYCNAAWPYKSVEYWGQGTQVTVSS”, the “polyreactivity (PSR sort gate)” value is given as “low polyreactivity”.

Take “QVQLVESGGGLVQAGGSLRLSCAATGIIFRYAMGWYRQAPGKERELVAAIRKSDGSTYYADSVKGRFTISRDNAKNTVYLQMNSLKPEDTAVYYCATDIVYGNRKGFYYWGQGTQVTVSS”: the “polyreactivity (PSR sort gate)” value is given as “high polyreactivity”.

As to “QVQLVESGGGLVQAGGSLRLSCAATGIIFSWYAMGWYRQAPVKERELVATISSGAHTYYADSVKGRFTISRDNAKNTVYLQMNRLKPEDTAVYYCGAANEFGVVWAQFDYWGQGPQVTVSS”, the “polyreactivity (PSR sort gate)” value is reported as “low polyreactivity”.

Consider “QVQLVESGGGLVQAGGSLRLSCAATGIIFYRNAMGWYRQAPGKERELVASISKRGGSTYYADSVKGRFTISRDNAKNTVYLQMNSLKPEDNAVYYCNTRGGIARQFEIYSWGQGTQVTLSS”, for which the “polyreactivity (PSR sort gate)” value is recorded as “high polyreactivity”.

On to “QVQLVESGGGLVQAGGSLRLSCAATGIIYGYVMGWYRQAPGKERELVAVITRSGGSTYYADSVKGRFTISRDNAMNSVYLQMNSLKPEDTAVYYCAAQGIDILYDYWGQGTQVTVSS”, for which the “polyreactivity (PSR sort gate)” value is “low polyreactivity”.

These data come from the nanobody polyreactivity screen of Harvey et al. (2022).
